Publication PMC11998062, “One-Pot Total Synthesis of a Post-translationally Modified Max Transcription Factor Sheds Light on Ser-Phosphorylation and Lys-Acetylation Crosstalk in DNA Binding”

How the values were obtained:
[1] = tested on: MaxS2pS11pK31AcK57Ac S2pS;S11pS;K31Ac;K57Ac;M1Nle;M65Nle;M148Nle, P61244-2; assay: BLI; conditions: EMSA: 10 mM MES pH 6.0, 150 mM KCl, 1 mM MgCl2, 10% glycerol, room temperature 30 min, 8% TBE gel; CD: same buffer; BLI: 1x PBS, 0.1% BSA, 0.02% Tween-20, 65 nM
[2] = molecular target: Max-WT (UniProt P61244-2, M1Nle;M65Nle;M148Nle); assay: EMSA; 1 uM DNA, 0-8 uM protein, 1 mM MgCl2; EMSA: 10 mM MES pH 6.0, 150 mM KCl, 1 mM MgCl2, 10% glycerol, room temperature 30 min, 8% TBE gel; CD: same buffer; BLI: 1x PBS, 0.1% BSA, 0.02% Tween-20, 65 nM biotinylated DNA loaded (temperature not in material); conditions: tags: C-terminal extra K; chain copies: 2
Chain of Max-WT (P61244 other isoform, or with tags, fused parts or gaps M1Nle;M65Nle;M148Nle): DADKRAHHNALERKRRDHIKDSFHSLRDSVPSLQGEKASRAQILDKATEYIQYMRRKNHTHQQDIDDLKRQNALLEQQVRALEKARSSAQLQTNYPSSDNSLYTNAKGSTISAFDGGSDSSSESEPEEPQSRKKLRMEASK

Chain of MaxS2pS11pK31AcK57Ac S2pS;S11pS;K31Ac;K57Ac;M1Nle;M65Nle;M148Nle, P61244-2 (P61244 whole entry, looked up): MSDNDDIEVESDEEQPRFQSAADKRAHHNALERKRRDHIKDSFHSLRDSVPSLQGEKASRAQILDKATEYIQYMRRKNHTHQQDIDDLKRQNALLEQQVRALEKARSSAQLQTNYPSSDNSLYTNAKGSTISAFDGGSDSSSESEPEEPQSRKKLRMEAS

Row | Molecule | Kd [1] | binding result [2]
1 | CCGGCTGACACGTGGTATTAAT (double strand) [biotinylated E-box DNA probe] | 1.1 µM | –
2 | E-box DNA probe (dsDNA) DNA 1: CCGGCTGACACGTGGTATTAAT DNA 2: ATTAATACCACGTGTCAGCCGG | – | binds
